Here are results for 1 molecule from patent US20130273567A1, “Screening Method for Candidate Agonist Compounds for Adiponectin Receptor I” (priority 2010, published 2013).

One assay has as its system AMPK. The assay can be described thus: AMPK phosphorylation in C2C12 myocytes (immunoblotting). The note with it: C2C12 myocytes, adiponectin 30 μg/ml. In kind it is cell-based, mouse. The method, then: (§1) The mouse C2C12 myoblasts were grown in 90% Dulbecco's modified high glucose Eagle's medium containing 10% (v/v) fetal bovine serum. When the cells reached 80% confluent, the myoblasts were induced to differentiate into myocytes by replacing the medium with a low serum differentiation medium (98% Dulbecco's modified high glucose Eagle's medium, 2.5% (v/v) horse serum). The medium was changed daily. The C2C12 cells were transfected by using Pofectamine 2000 (Invitrogen) and following the manufacturer's instructions.

The test system of a further assay is CaMKI, HDAC5. The experiment in a line: Phosphorylation of CaMKI and HDAC5 in C2C12 myocytes (immunoblotting). In kind it is cell-based, mouse. The note with it: adiponectin 30 μg/ml, 0-20 min. The method, then: as §1
(In general: Immunoblotting shows a protein as a band on a membrane.)

The target of another assay is T1, AdipoR1 (Mus musculus, UniProt Q91VH1).
T1 sequence (Q91VH1 1-375): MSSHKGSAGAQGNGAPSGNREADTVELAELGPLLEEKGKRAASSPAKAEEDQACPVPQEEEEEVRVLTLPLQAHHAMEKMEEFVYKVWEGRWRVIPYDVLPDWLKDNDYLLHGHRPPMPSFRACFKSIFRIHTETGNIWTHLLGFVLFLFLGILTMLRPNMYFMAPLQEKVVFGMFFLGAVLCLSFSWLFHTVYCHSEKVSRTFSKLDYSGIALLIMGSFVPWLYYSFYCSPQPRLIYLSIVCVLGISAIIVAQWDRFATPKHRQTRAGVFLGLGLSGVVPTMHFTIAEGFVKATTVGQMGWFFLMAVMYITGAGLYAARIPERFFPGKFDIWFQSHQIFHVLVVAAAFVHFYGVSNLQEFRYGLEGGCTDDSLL
The experiment in a line: Calcium imaging in C2C12 myocytes (fura-2). In kind it is cell-based. The arrangement: endogenous in cells; host or cells: mouse C2C12 myocytes (differentiated from myoblasts). The procedure: C212 myocytes cultured on glass base dishes (IWAKI) were treated with 2.5 μM fura-2/AM for 30 min. Fluorescence was measured with an Aquacosmos Calcium Imaging system (Hamamatsu Photonics). Ligands were delivered through the superfusing Ringer's solution (140 mM NaCl, 5.6 mM KCl, 5 mM HEPES, 2.0 mM sodium pyruvate, 1.25 mM KH2PO4, 2.0 mM CaCl2, 2.0 mM MgCl2, 9.4 mM D-glucose (pH 7.4)). For the calcium chelating experiment, EGTA solution (140 mM NaCl, 5.6 mM KCl, 5 mM HEPES, 2.0 mM sodium pyruvate, 1.25 mM KH2PO4, 2.0 mM MgCl2, 5.0 mM EGTA-2Na, 9.4 mM D-glucose (pH 7.4) was used for the bath solution. Fura-2 fluorescence ratios were calibrated to calcium ion signals.

Another assay deals with PGC-1α (Ppargc1a). The assay can be described thus: Ppargc1a mRNA levels in skeletal muscle treated with adiponectin. In kind it is in vivo, mice. The following applies: control littermates; adiponectin 30 μg per 10 g body weight, 10 min. The procedure:
(§2) Mouse full-length adiponectin was generated as described in the following documents (Nature Med. 8, 1288-1295 (2002); Nature Med. 7, 941-946 (2001); Nature 423, 762-769 (2003)).
Real-time PCR was carried out according to the method described in the following documents (Nature Med. 13, 332-339 2007); Nature 423, 762-769 (2003); J. Biol. Chem. 281, 8748-8755 (2006)). Total RNA was prepared from cells or tissues by using Trizol (Invitrogen) according to the manufacturer's instructions. Quantification of mRNA was conducted using a real-time PCR method (Nature 423, 762-769 (2003)) with slight modifications. The procedures used for immunoblotting are described in the following documents (Nature Med. 7, 941-946 (2001); J. Biol. Chem. 281, 26602-26614 (2006); J. Biol. Chem. 281, 8748-8755 (2006)). The livers or muscles were freeze-clamped in liquid nitrogen in situ (Nature Med. 7, 941-946 (2001); J. Biol. Chem. 281, 26602-26614 (2006); J. Biol. Chem. 281, 8748-8755 (2006)).

Another assay has as its system CaMKI. The assay can be described thus: CaMKI phosphorylation in skeletal muscle in vivo. Details: species or system mice. The following applies: adiponectin 30 μg per 10 g body weight, 5 min; via AdipoR1.
From the text: as §2

In another assay the target is T2, mAdipoR1 (Mus musculus, UniProt Q91VH1).
T2 construct: expressed in transfected cells; host or cells: Xenopus oocytes (stage V to VII) injected with cRNA
T2 sequence (Q91VH1 1-375): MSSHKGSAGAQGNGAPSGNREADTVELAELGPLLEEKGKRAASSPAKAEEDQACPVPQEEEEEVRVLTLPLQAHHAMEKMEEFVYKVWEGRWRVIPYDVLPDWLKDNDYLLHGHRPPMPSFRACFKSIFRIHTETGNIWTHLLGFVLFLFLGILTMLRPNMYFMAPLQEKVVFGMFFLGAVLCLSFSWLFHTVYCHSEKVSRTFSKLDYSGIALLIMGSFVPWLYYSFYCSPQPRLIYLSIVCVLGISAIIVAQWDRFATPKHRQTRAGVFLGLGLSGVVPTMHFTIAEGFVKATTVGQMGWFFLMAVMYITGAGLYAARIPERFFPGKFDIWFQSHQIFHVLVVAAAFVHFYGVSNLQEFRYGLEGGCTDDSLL
The assay can be described thus: Xenopus oocytes injected with AdipoR1 cRNA, two-electrode voltage clamp recording. In kind it is cell-based. The method, then:
Stage V to VII oocytes were treated with 2 mg/ml of collagenase S-1 (Nitta gelatin) in calcium ion-free saline solution (82.5 mM NaCl, 2 mM KCl, 1 mM MgCl2, and 5 mM HEPES, pH 7.5) for 1 to 2 hr at room temperature. The resulting oocytes were then microinjected with 50 ng of cRNA for mAdipoR1. The cRNA was synthesized from linearized modified pSPUTK. The injected oocytes were incubated for 3 days at 18° C. in a bath solution (88 mM NaCl, 1 mM KCl, 0.3 mM Ca(NO3)2, 0.4 mM CaCl2, 0.8 mM MgSO4, 2.4 mM NaHCO3, 15 mM HEPES, pH 7.6) supplemented with 10 μg/ml of penicillin and streptomycin.
Whole cell currents were recorded with a two-electrode voltage clamp technique. Intracellular glass electrodes were filled with 3M KCl. Signals were amplified with an OC-725C amplifier (Warner Instruments), low-pass filtered at 50 Hz, and digitized at 1 kHz. A control bath solution contained 115 mM NaCl, 2.5 mM KCl, 1.8 mM CaCl2, and 10 mM HEPES. It was titrated to pH 7.2 with NaOH. A calcium ion free solution containing 1.8 mM BaCl2 instead of CaCl2 was used. The inward current was monitored at a holding potential of −80 mV. Calcium ion activated Cl^− current was monitored by applying 500-mscc depolarizing pulses of +100 mV and +50 mV from the holding potential of −80 mV. Adiponectin was supplied to the superfusing bath solution via a silicon tube connected to computer-driven solenoid valves. Data acquisition and analysis were carried out using Digidata 1322A and pCLAMP software.

B1: adiponectin: recombinant murine full-length adiponectin, internal ligand of adiponectin receptor 1 (protein, UniProt Q60994 1-247, looked up)
chain: MLLLQALLFLLILPSHAEDDVTTTEELAPALVPPPKGTCAGWMAGIPGHPGHNGTPGRDGRDGTPGEKGEKGDAGLLGPKGETGDVGMTGAEGPRGFPGTPGRKGEPGEAAYVYRSAFSVGLETRVTVPNVPIRFTKIFYNQQNHYDGSTGKFYCNIPGLYYFSYHITVYMKDVKVSLFKKDKAVLFTYDQYQEKNVDQASGSVLLHLEVGDQVWLQVYGDGDHNGLYADNVNDSTFTGFLLYHDTN
modifications: full-length
Consider B1, for which, in the assay on AMPK, the “phosphorylation of AMPK α-subunits at Thr 172” value was “increased”. Besides, in the assay with CaMKI, HDAC5, the CaMKI phosphorylation result is “rapid, robust, and transient increase”; the HDAC5 phosphorylation result is on record as “increased”. Further, the “dose dependence of calcium response” value with AdipoR1 is reported as “dose-dependent responses”. Further, in the assay with AdipoR1 (adiponectin 30 μg/ml, 1 min), the “intracellular calcium ion concentration (fura-2-based fluorescent imaging)” value was “increased”. In the assay with PGC-1α (Ppargc1a), the “expression levels of Ppargc1a in muscle” value is on record as “increased”. In addition, the “phosphorylation of CaMKI in skeletal muscle in vivo” value with CaMKI is “significantly increased”. In the assay with mAdipoR1 (control oocytes (no AdipoR1 cRNA), adiponectin 30 μg/ml), the “calcium-ion activated Cl- current response” value was “not observed”. Further, the inward current responses entry with mAdipoR1 (oocytes expressing AdipoR1, holding potential -80 mV, adiponectin 30 μg/ml 30 sec) is on record as “induced”. Moreover, the “intracellular calcium levels by calcium-ion activated Cl- current” value in the assay with mAdipoR1 (oocytes injected with AdipoR1 complementary RNA, adiponectin 30 μg/ml) is listed as “increase”.
